Read-outs that look alike come from different tables or passages of the source.

What all share (assay): cell-based or functional assay
For assay [1], the target named is SARS-CoV-2 Delta Spike on virus particles (SARS-CoV-2).
Assay [2] deals with SARS-CoV-2 Omicron BA.1 Spike on virus particles (SARS-CoV-2).
Assay [3] deals with SARS-CoV-2 Omicron BA.2 Spike on pseudovirus (SARS-CoV-2).
For assay [4], the target named is SARS-CoV-2 Omicron BA.2.12.1 Spike on pseudovirus (SARS-CoV-2).
In assay [5] the target is SARS-CoV-2 Omicron BA.4/5 Spike on pseudovirus (SARS-CoV-2).
Assay [6] has as its target SARS-CoV-2 Delta Spike on virus particles (SARS-CoV-2). The source holds these as a separate data set.
The target of assay [7] is SARS-CoV-2 Omicron BA.1 Spike on virus particles (SARS-CoV-2). The source holds these as a separate data set.
The target of assay [8] is SARS-CoV-2 Omicron BA.2 Spike on pseudovirus (SARS-CoV-2). The source holds these as a separate data set.
The target in assay [9] is SARS-CoV-2 Omicron BA.2.12.1 Spike on pseudovirus (SARS-CoV-2). The source holds these as a separate data set.
Assay [10] has as its target SARS-CoV-2 Omicron BA.4/5 Spike on pseudovirus (SARS-CoV-2). This is another data set of the same source.
Assay [11] has as its target spike (SARS-CoV-2, BA.2) (SARS-CoV-2).

With “Sotrovimab VH/VL (human IgG1 molecule expressing the same variable regions of Sotrovimab) (antibody)”, the % neutralization at 4.5 µg/ml, pseudovirus in assay [1] was 101%; in assay [2], 99.4%; in assay [3], 73.1%; in assay [4] it was 76.9%; in assay [5], 60.5%. The IC50, live virus neutralization came out at 0.0579 µg/mL in assay [1] and 0.411 µg/mL in [2]. Further, the IC50, pseudovirus neutralization in assay [1] is 0.065 µg/mL; in assay [3], 0.704 µg/mL; in [4] it was 1.2 µg/mL; in assay [5] it was more than 4.5 µg/mL; in assay [6], 0.0123 µg/mL; in [7], 0.0633 µg/mL. For the same substance, the IC50, pseudovirus neutralization turned out to be 0.393 µg/mL in assay [8], 0.714 µg/mL in [9] and 0.666 µg/mL in assay [10]. For the same substance, the Neutralization - IC50, pseudovirus in assay [5] turned out to be 0.424 µg/mL.
On to sotrovimab VH/VL-hamIgG2a (antibody), for which, in assay [11], the EC50, pseudovirus neutralization, Vero E6 came out at 0.361 µg/mL.
Substance sotrovimab VH/VL-huIgG1 (antibody) registered an EC50, pseudovirus neutralization, Vero E6 in [11] of 0.862 µg/mL.
Consider AZD8895 (antibody), for which the % neutralization at 4.5 µg/ml, pseudovirus was 102% in assay [1]; 96.5% in assay [2]; 93.9% in [3]; 94.2% in assay [4]; 25.8% in [5]. The IC50, pseudovirus neutralization in [6] amounted to 0.0005 µg/mL; in assay [7], 1.16 µg/mL; in [8], 0.608 µg/mL; in assay [9], 0.415 µg/mL.
In the case of Bebtelovimab (antibody), the Neutralization - IC50, pseudovirus in assay [5] is 0.0003 µg/mL.
With AZD1061 (antibody), the % neutralization at 4.5 µg/ml, pseudovirus in assay [1] was 100%; in assay [2], 83.9%; in [3], 99.7%; in assay [4] it was 99.8%; in [5] it was 96.7%. For the same substance, the IC50, pseudovirus neutralization in assay [6] worked out at 0.0059 µg/mL; in assay [7] it was 1.22 µg/mL; in assay [8] it was 0.0058 µg/mL; in assay [9], 0.0051 µg/mL; in assay [10], 0.0412 µg/mL.

The values above are taken from patent US20230357367A1.
